Data: the DeepSol protein solubility set

Test: soluble on expression in E. coli; label from the status in PepcDB or PDB records

Soluble on expression in E. coli, not soluble:
MGSDKIHHHHHHMNEVIENVKEYYGKILHSTADLQSKACCCSPDSMPKEVKKALIFIADEVINRYYGCGSPLPPLLEGMTVLDLGCGSGRDVYVAAQLVGEHGRVIGVDMTQEQLDVAKKYEDEQRQRFGYAKSNVKFLSGYIEDLRAAGISDSSVDIVISNCVVNLSPDKEKVFAEIWRVLKPGGELYFSDVFADRRIPEYLAADPVLRGECIGGALYYEDFRRIMQRVGFTDFRYKSIRNIDLDNEAIIEKVGFANFTERTVRAFKLDDLEDICEDYGQIAVYNGSIASSPHFFDLDDHHRFFTGKPLLVCGNTAAMLAKTRFASAFRVIGNRSTHYGVFGVCGGKSETNCFDTGSSCGC, MGSDKIHHHHHHMRGPLRGKVSFPWGLRPLPMLVYHEFGRSMTRPVIGIIGNHHLINDQYATHAGGIMNSEAVAEVSGGLPLIVPSNPAFVDLDDLMATCAGFVFTGGRPNVHPEEYGEDYTDAHGTMDRDRDALTLPLIRACVERGQPILGLCRGFQEVNVAMGGSLYPEIRDLPGRMNHRMPPDGTIEEKFELRHTVTFTEGGPFHRLMGAQQVRTNTLHGQGIKQAGARVIIDGHAEDGTPEAIYIADAPGFTLSVQWHPEYRAAEDPVSRPLFAAFGEAARAWSIGKRPVKAGEVA, LRRTALNGRFCRLEPLDVDRHAADLFAAYALGDNSDWTWLASTRPESVTATAHWIAGKVNDDVLVPYAVVDLRSEQAVGIVSYMAIEREMGTVEIGHVTWSRRMKNTPLGTEAVWLLLKNGFDHGYRRLEWKCDSMNVASRRAAERLGFSWEGRLRQRLVRKGRTRDSDMLSIIDGEWPARD, MAHHHHHHMIEHLNLWLPWKHRKPMWPYPQKNAMPSVFPLEFTTLGEGVVTFSCLCLAAVLAVQEVLTPSHGFPTVLVAFPHKRGGVSSALLYSKVVEAFIQSLRSESALVEAVTVRHMARAALQALNTIINACFSEQYPLYTMAQLLLSEGKAEAKDATHDGGMLGAVDLVLSIDPLSCGGDILHSETQLVMPTPFAIRSVGRCTPGAARQQTNVKLPSALEVTDAALLQMPGAGESSTGRRLSACILERSQVLLTLLK, MTTLKVKQLANKKGLNILEDSIEINESGVDFQVAHVTEQNGDKWILRIPRRPESMRHALREKEALEIMKKHAAFQVPNWSIFSEELIAYKQLSGFPAATIDIEQQKYVWNFNEKNVPTEYYISLGKVLANVHSLSQQKFNNIGVEILTANELRTSMKQRMNRVKEQYHINQNLWDRWQAWLAEDSFWPSHVGVKHGDIHPGHILIDKKNNVTGLIDWTEVGIGDVSIDFTSHYLLFGKDGLTKLIHSYDNAGGKTWSRMDEHIIELLTTSSITVAEYAQVSGLKDMHEAAIHMLATEC, SLDLNDTYSGKREPFSGDHSADGFEVTSRSEMSSGSEISPVSEMPSSSEPSSGADYDYSEEYDNEPQIPGYIVDDSVRVEQVVKPPQNKTESENTSDKPKRKKKGGKNGKNRRNRKKKNPCNAEFQNFCIHGECKYIEHLEAVTCKCQQEYFGERCGEKSMKTHSMIDSSEG, MDSLKCQVDNTVASHNVTIDKSSQDDNHIDNRRYYINIGNTKDSEEVARLQKLILTQNEAESKRTMELLALLNLKNNPEEQKKASAVGPAVDVAQNLRHLSASAGGTRRLRSCHGTYLRAYDKGLKVDMKTGAPGTWENWWVEDRKGKVVFKAIHSPGIFLSAQGNNQLTLDYHVNASEFWTPKKNDNGSWSFQSANGTWLSAHKDGRACLQPHRQAWEEFWLEWW, MLKCVMSGSQVKVFGKAVQALSRISDEFWLDPSKKGLALRCVNSSRSAYGCVLFSPVFFQHYQWSALVKMSENELDTTLHLKCKLGMKSILPIFRCLNSLERNIEKCRIFTRSDKCKVVIQFFYRHGIKRTHNICFQESQPLQVIFDKNVCTNTLMIQPRLLADAIVLFTSSQEEVTLAVTPLNFCLKSSNEESMDLSNAVHSEMFVGSDEFDFFQIGMDTEITFCFKELKGILTFSEATHAPISIYFDFPGKPLALSIDDMLVEANFILATLADEQSRASSPQSLCLSQKRKRSDLIEKKAGKNVTGQALECISKKAAPRRLYPKETLTNISALENCGSPAMKRVDGDVSEVSESSVSNTEEVPGSLCLRKFSCMFFGAVSSDQQEHFNHPFDSLARASDSEEDMNNGSFSIFLEHHHHHH
